From patent publication US20080058263A1 (published 2008)
Where a chain is given by its changes, count along the chain named.

T1: VEGFR-3-Fc (UniProt P35916 25-328)
T1 construct: domain: first three Ig domains; conditioned supernatant of 293T cells; also called VEGFR-3-Fc fusion protein; not shown: Fc fragment of the pIg vector
T1 sequence (looked up): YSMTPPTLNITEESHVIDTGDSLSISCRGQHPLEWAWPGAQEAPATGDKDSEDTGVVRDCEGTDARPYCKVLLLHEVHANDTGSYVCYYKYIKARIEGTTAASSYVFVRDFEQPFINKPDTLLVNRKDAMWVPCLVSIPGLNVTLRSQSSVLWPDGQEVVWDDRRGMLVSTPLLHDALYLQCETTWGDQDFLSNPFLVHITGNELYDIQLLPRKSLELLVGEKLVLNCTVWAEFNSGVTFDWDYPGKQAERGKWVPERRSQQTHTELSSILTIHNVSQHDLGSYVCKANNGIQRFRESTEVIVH

B1: 54-10 (ligand)
chain: AHYNTEILKSIDNEWRKTQCMPIETLVDIFQEFGVATNTFFKPSCVPLMRCGGCCNDEGLECMNTSTSYLSKTLFEITVPLSQGPKPVTISFLQHNKCECRPKKD
B2: 44-10 (ligand)
chain: AHYNTEILKFMDVYQRSYCHPREVCIDVGKEFGVATNTFFKPSCVPLMRCGGCCNDEGLECMNTSTSYLSKTLFEITVPLSQGPKPVTISFLQHNKCECRPKKD
B3: 44-12 (ligand)
chain: B2 chain with D56S, E60Q
B4: 44-16 (ligand)
chain: B2 chain with D56S, E60Q, L92A, Q93N, N95T, K96S, E98R, R100M, P101S, K103L
B5: 64-12 (ligand)
chain: B2 chain with A1G, H2Q, Y3N, N4H, T5H, I7V, L8V, D56S, E60Q
B6: 54-1 (ligand)
chain: AHYNTEILKSIDNEWRKTQCMPIETLVDIFQEFGVATNTFFKPSCVPLMRCGGCCNDEGLECVPTEESNITMQIMRIKPHQGQHIGEMSFLQHNKCECRPKKD
B7: 54-3 (ligand)
chain: B6 chain with D57S, E61Q
B8: 54-9 (ligand)
chain: AHYNTEILKSIDNEWRKTQCMPIETLVDIFQEFGVATNTFFKPSCVPLMRCGGCCNDEGLECVPTEESNITMQIMRITVPLSQGPKPVTISFLQHNKCECRPKKD
B9: 54-11 (ligand)
chain: B8 chain with D57S, E61Q
B10: 54-15 (ligand)
chain: B8 chain with D57S, E61Q, L93A, Q94N, N96T, K97S, E99R, R101M, P102S, K104L
B11: 54-13 (ligand)
chain: B8 chain with L93A, Q94N, N96T, K97S, E99R, R101M, P102S, K104L
B12: 64-6 (ligand)
chain: GQNHHEVVKFMDVYQRSYCHPREVCIDVGKEFGVATNTFFKPSCVPLMRCGGCCNDEGLECMNTSTSYLSKTLFEIKPHQGQHIGEMSFANHTSCRCMSKLD
B13: 44-4 (ligand)
chain: AHYNTEILKFMDVYQRSYCHPREVCIDVGKEFGVATNTFFKPSCVPLMRCGGCCNSEGLQCMNTSTSYLSKTLFEIKPHQGQHIGEMSFLQHNKCECRPKKD
B14: 44-8 (ligand)
chain: B13 chain with L90A, Q91N, N93T, K94S, E96R, R98M, P99S, K101L
B15: 64-4 (ligand)
chain: B13 chain with A1G, H2Q, Y3N, N4H, T5H, I7V, L8V
B16: 64-2 (ligand)
chain: B12 chain with A90L, N91Q, T93N, S94K, R96E, M98R, S99P, L101K
B17: 64-1 (ligand)
chain: GQNHHEVVKFMDVYQRSYCHPREVCIDVGKEFGVATNTFFKPSCVPLMRCGGCCNDEGLECVPTEESNITMQIMRIKPHQGQHIGEMSFLQHNKCECRPKKD
B18: 64-5 (ligand)
chain: B17 chain with L90A, Q91N, N93T, K94S, E96R, R98M, P99S, K101L
B19: 64-3 (ligand)
chain: B17 chain with D56S, E60Q
B20: 64-7 (ligand)
chain: B17 chain with D56S, E60Q, L90A, Q91N, N93T, K94S, E96R, R98M, P99S, K101L
B21: 44-9 (ligand)
chain: AHYNTEILKFMDVYQRSYCHPREVCIDVGKEFGVATNTFFKPSCVPLMRCGGCCNDEGLECVPTEESNITMQIMRITVPLSQGPKPVTISFLQHNKCECRPKKD
B22: 64-11 (ligand)
chain: B21 chain with A1G, H2Q, Y3N, N4H, T5H, I7V, L8V, D56S, E60Q
B23: 44-13 (ligand)
chain: B21 chain with L92A, Q93N, N95T, K96S, E98R, R100M, P101S, K103L
B24: 64-9 (ligand)
chain: B21 chain with A1G, H2Q, Y3N, N4H, T5H, I7V, L8V
B25: 44-11 (ligand)
chain: B21 chain with D56S, E60Q
B26: 44-15 (ligand)
chain: B21 chain with D56S, E60Q, L92A, Q93N, N95T, K96S, E98R, R100M, P101S, K103L
B27: 83-6 (ligand)
chain: AHYNTEILKFMDVYQRSYCHPIETLVDIFQEYPDEIEYIFKPPCVSVYRCGGCCNDEGLECMNTSTSYLSKTLFEIKPHQGQHIGEMSFANHTSCRCMSKLD

Target: T2, VEGFR-2-Fc (UniProt P35968 20-322)
T2 construct: domain: first 3 Ig domains; conditioned supernatant of 293T cells; also called VEGFR-2-Fc fusion protein; not shown: Fc fragment of the pIg vector
T2 sequence (P35968 20-322): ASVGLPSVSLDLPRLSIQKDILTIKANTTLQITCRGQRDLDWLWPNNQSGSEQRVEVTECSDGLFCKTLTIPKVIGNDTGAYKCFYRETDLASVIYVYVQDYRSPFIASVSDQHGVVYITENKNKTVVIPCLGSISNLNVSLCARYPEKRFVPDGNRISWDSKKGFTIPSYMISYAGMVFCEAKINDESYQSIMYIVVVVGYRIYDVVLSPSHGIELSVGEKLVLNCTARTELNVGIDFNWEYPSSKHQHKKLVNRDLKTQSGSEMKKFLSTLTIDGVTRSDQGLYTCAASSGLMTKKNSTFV
Assay: receptor-Fc IP
Procedure, shortened: (§1)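 fusion protein at 400 ng/ml in an IP mix (PBS, 1.5% BSA, 0.06% Tween 20, 3 μg/ml heparin) was combined with sample supernatant at a 1:2 ratio. Bound ligand captured by immunoprecipitation with pentahistidine antibody.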

Row | binding result | Binder
1 | no binding | B1
2 | no binding | B2
3 | no binding | B3
4 | no binding | B4
5 | no binding | B5
6 | no binding | B6
7 | no binding | B7
8 | no binding | B8
9 | no binding | B9
10 | no binding | B10
11 | no binding | B11
12 | no binding | B12
13 | no binding | B13
14 | no binding | B14
15 | no binding | B15
16 | no binding | B16
17 | no binding | B17
18 | no binding | B18
19 | no binding | B19
20 | no binding | B20
21 | no binding | B21
22 | no binding | B22
23 | no binding | B23
24 | no binding | B24
25 | no binding | B25
26 | no binding | B26
27 | no binding | B27

Target: T3, VEGFR-1-Fc (UniProt P17948 27-338)
T3 construct: domain: first three Ig domains; expressed in Drosophila S2 cells, purified on Protein A sepharose; also called VEGFR-1-Fc fusion protein; not shown: Fc fragment from the Signal-pIgPlus vector
T3 sequence (P17948 27-338): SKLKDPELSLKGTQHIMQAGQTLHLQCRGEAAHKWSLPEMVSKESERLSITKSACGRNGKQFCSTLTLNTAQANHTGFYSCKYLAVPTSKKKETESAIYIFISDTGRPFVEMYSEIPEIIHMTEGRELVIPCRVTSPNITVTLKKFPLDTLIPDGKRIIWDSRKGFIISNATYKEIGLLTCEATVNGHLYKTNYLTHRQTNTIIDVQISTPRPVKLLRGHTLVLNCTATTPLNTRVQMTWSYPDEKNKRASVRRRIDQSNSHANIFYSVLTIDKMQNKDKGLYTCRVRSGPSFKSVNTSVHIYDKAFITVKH
Assay: receptor-Fc IP
Procedure, shortened: as §1

Row | binding result | Binder
28 | no binding | B1
29 | no binding | B2
30 | no binding | B3
31 | no binding | B4
32 | no binding | B5
33 | no binding | B6
34 | no binding | B7
35 | no binding | B8
36 | no binding | B9
37 | no binding | B10
38 | no binding | B11
39 | no binding | B12
40 | no binding | B13
41 | no binding | B14
42 | no binding | B15
43 | no binding | B16
44 | no binding | B17
45 | no binding | B18
46 | no binding | B19
47 | no binding | B20
48 | no binding | B21
49 | no binding | B22
50 | no binding | B23
51 | no binding | B24
52 | no binding | B25
53 | no binding | B26
54 | no binding | B27

Target: T1, VEGFR-3-Fc
Assay: receptor-Fc IP
Procedure, shortened: as §1

Row | binding result | Binder
55 | no binding | B1
56 | no binding | B2
57 | no binding | B3
58 | no binding | B4
59 | no binding | B5
60 | no binding | B6
61 | no binding | B7
62 | no binding | B8
63 | no binding | B9
64 | no binding | B10
65 | no binding | B11
66 | no binding | B12
67 | no binding | B13
68 | no binding | B14
69 | no binding | B15
70 | no binding | B16
71 | no binding | B17
72 | no binding | B18
73 | no binding | B19
74 | no binding | B20
75 | no binding | B21
76 | no binding | B22
77 | no binding | B23
78 | no binding | B24
79 | no binding | B25
80 | no binding | B26
81 | no binding | B27
